In assay [1] the target is MBP.NS1 H3N2 (RSKV) (influenza A H3N2) (UniProt Q67253). As to the kind of experiment: titration, direct binding sandwich assay.
The target of assay [2] is MBP.NS1 H1N1 (RSEV) (influenza A H1N1) (UniProt A3DRP6). The experiment in a line: G assay titration.
Assay [3] addresses MBP.NS1 H3N2 (RSKV) (influenza A H3N2) (UniProt Q67253). As to the kind of experiment: G assay titration.
In assay [4] the target is Peptide 1958 H5N1A (EPEV) (influenza A H5N1). As to the kind of experiment: G assay titration.
The target in assay [5] is MBP.NS1 H1N1 (RSEV) (influenza A H1N1) (UniProt A3DRP6). The experiment in a line: direct binding assay titration.
The target of assay [6] is MBP.NS1 H5N1B (ESEV) (influenza A H5N1) (UniProt Q6DP28). The experiment in a line: direct binding assay titration.
In assay [7] the target is MBP.NS1 H3N2 (RSKV) (influenza A H3N2) (UniProt Q67253). The experiment in a line: direct binding assay titration.
Assay [8] deals with MBP.NS1 H5N1A (EPEV) (influenza A H5N1) (UniProt O56264). The experiment in a line: direct binding assay titration.
Assay [9] concerns the target MBP.NS1 H1N1 (RSEV) (influenza A H1N1) (UniProt A3DRP6). The experiment in a line: titration, direct binding sandwich assay.
In assay [10] the target is MBP.NS1 H5N1B (ESEV) (influenza A H5N1) (UniProt Q6DP28). As to the kind of experiment: titration, direct binding sandwich assay.
For assay [11], the target named is MBP.NS1 H5N1A (EPEV) (influenza A H5N1) (UniProt O56264). The experiment in a line: titration, direct binding sandwich assay.
Assay [12] addresses MBP.NS1 H5N1B (ESEV) (influenza A H5N1) (UniProt Q6DP28). The experiment in a line: G assay titration.
Assay [13] has as its target MBP.NS1 H5N1A (EPEV) (influenza A H5N1) (UniProt O56264). As to the kind of experiment: G assay titration.

Our source for the EC50 values is patent US20070161078A1.

A value given as a limit tells only on which side of the number the result lay.

Consider “INADL d8 (from UniProt Q8NI35 1431-1525)”, for which the EC50 (in general, the concentration that produces a half-maximal response) was 0.869 µg/mL in assay [1], 3.2 µg/mL in assay [2] and 0.9 µg/mL in assay [3].
For “MAST2 d1 (from UniProt Q6P0Q8 1098-1197)”, the EC50 was 2 µg/mL in assay [2], above 50 µg/mL in assay [3] and 5.5 µg/mL in assay [4].
With Magi3 d1 (from UniProt Q5TCQ9 18-106), the EC50 in [2] is 3.1 µg/mL; in assay [3], 3 µg/mL.
On the same counts, the results for “NeDLG d1,2 (from UniProt Q92796 124-316)” are 1.1 µg/mL and above 50 µg/mL.
Take “Outer Membrane Protein (from UniProt P08515 1-218)”: the EC50 in assay [5] was 6 µg/mL; in assay [6], 0.8 µg/mL; in [7], 3 µg/mL; in [8], 12.5 µg/mL; in [9], 1.25 µg/mL; in assay [10], 0.18 µg/mL. The EC50 was 12.6 µg/mL in [11]; 1.2 µg/mL in assay [2]; 0.2 µg/mL in assay [12]; 13 µg/mL in [3]; 27 µg/mL in [13].
PSD95 d2 (from UniProt P31016 160-246) returned an EC50 in [4] of 3.8 µg/mL.
